Assay results: patent US20260234700, “MUTANT CAS12J ENDONUCLEASES” (University of Copenhagen, published 2026)

Assays:
Test in all cases: cleavage_in_vitro; PAM TTC; 5 mM Mg2+
Details in all cases: tags: C-terminal His6; label: 5'-FAM on NT-strand, 3'-FAM on T-strand
CasΦ3 K30A = target: T1, CasΦ3 K30A (Biggiephage, K30A)
T1 chain: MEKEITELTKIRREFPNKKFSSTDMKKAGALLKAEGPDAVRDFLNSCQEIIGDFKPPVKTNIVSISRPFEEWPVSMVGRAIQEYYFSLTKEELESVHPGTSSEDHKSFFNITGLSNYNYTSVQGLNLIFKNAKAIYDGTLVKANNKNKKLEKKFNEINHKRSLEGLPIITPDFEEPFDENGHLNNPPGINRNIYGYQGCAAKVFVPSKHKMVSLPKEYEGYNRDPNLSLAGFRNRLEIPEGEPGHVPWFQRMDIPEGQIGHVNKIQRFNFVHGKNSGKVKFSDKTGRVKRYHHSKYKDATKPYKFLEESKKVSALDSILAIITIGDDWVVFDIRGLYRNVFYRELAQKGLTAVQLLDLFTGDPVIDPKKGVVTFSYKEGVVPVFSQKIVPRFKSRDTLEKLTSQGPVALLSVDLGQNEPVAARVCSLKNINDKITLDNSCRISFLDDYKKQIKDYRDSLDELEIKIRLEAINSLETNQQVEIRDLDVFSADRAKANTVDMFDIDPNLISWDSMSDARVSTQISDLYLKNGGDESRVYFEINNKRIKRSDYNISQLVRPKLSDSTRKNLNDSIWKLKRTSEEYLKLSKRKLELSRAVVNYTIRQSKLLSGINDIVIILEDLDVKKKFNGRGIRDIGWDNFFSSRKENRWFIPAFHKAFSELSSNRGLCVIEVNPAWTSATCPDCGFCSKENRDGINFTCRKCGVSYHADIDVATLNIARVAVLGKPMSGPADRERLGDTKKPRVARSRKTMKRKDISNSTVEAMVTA

CasΦ3 Q123A = target: T2, CasΦ3 Q123A (Biggiephage, Q123A)
T2 chain: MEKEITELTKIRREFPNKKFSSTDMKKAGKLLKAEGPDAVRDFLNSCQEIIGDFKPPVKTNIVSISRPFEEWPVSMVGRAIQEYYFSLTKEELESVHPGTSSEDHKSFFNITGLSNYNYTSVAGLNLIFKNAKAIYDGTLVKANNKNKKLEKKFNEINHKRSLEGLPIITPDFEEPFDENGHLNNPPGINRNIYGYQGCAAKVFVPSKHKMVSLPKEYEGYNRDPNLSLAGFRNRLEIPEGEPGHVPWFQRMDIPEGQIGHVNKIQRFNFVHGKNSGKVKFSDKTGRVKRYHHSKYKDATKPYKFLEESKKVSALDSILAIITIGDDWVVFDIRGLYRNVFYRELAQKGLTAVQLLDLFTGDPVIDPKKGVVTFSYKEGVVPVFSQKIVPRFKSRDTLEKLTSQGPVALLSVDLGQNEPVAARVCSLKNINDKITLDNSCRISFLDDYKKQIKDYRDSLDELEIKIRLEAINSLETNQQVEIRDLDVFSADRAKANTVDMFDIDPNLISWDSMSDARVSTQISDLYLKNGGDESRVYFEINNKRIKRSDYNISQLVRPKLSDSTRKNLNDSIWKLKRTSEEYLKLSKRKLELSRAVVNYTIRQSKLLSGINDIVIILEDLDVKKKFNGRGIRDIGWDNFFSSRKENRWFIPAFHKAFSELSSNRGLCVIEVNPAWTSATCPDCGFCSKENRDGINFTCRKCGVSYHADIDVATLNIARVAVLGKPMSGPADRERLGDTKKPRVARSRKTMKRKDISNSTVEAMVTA

CasΦ3 Q197A = target: T3, CasΦ3 Q197A (Biggiephage, Q197A)
T3 chain: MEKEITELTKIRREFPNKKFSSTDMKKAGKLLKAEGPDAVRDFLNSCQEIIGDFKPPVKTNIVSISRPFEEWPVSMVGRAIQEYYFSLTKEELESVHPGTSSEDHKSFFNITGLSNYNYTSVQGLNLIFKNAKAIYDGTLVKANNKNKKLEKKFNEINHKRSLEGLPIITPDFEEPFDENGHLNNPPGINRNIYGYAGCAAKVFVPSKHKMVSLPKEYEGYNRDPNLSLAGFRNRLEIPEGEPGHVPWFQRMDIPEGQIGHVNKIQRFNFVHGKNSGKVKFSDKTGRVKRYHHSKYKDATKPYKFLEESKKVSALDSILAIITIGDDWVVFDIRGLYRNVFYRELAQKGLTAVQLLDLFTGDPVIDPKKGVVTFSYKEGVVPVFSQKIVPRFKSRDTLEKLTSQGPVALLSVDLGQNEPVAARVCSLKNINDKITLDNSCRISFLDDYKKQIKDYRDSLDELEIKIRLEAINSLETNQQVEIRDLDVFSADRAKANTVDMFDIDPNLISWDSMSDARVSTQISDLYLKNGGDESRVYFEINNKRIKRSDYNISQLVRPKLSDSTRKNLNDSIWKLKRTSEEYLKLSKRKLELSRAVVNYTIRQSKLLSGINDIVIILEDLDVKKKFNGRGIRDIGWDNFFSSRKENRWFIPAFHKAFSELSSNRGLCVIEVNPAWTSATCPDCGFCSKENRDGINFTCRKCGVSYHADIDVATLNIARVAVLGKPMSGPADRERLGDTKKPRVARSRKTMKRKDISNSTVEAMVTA

B1: CasΦ3 crRNA ; FAM-labelled target dsDNA (5F-NT-TTC-30/3F-T-AAG-30) (ssRNA ; dsDNA)
RNA: UAUUGAUUGCCCAGUACGCUGGGACAGCUGGUAAUGGGAUACCUU
DNA 1: GTAATTCAGCTGGTAATGGGATACCTTGTGCTACAGC
DNA 2: GCTGTAGCACAAGGTATCCCATTACCAGCTGAATTAC
activity (CasΦ3 K30A): ~55 % reduction vs WT | activity (CasΦ3 Q123A): ~90 % reduction vs WT | activity (CasΦ3 Q197A): ~90 % reduction vs WT
